According to patent US20220340666A1:

Molecular target: endogenous Galectin-9 on CRL-2134 cells (human) (UniProt O00182)
Assay: cell-based binding assay, flow cytometry on CRL-2134 cells

Sequence of endogenous Galectin-9 on CRL-2134 cells (human) (O00182 whole entry): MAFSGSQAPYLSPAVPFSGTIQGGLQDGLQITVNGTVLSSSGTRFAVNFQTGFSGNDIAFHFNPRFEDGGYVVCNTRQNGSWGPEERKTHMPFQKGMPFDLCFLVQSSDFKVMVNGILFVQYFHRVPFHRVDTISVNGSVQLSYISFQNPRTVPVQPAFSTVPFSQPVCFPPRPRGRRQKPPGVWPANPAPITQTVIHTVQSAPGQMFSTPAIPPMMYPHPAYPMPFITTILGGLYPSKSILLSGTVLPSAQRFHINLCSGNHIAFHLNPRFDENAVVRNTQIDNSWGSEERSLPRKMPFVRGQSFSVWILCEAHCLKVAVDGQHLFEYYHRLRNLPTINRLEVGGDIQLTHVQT

Row | Binder | Kd
1 | G9.2-17 hIgG1 (antibody, V domains shown) VH: EVQLVESGGGLVQPGGSLRLSCAASGFTVSSSSIHWVRQAPGKGLEWVAYISSSSGYTYYADSVKGRFTISADTSKNTAYLQMNSLRAEDTAVYYCARYWSYPSWWPYRGMDYWGQGTLVTVSS VL: DIQMTQSPSSLSASVGDRVTITCRASQSVSSAVAWYQQKPGKAPKLLIYSASSLYSGVPSRFSGSRSGTDFTLTISSLQPEDFATYYCQQSSTDPITFGQGTKVEIKR | 0.41 nM
2 | G9.2-17 mIgG1 (antibody, V domains shown) VH: EVQLVESGGGLVQPGGSLRLSCAASGFTVSSSSIHWVRQAPGKGLEWVAYISSSSGYTYYADSVKGRFTISADTSKNTAYLQMNSLRAEDTAVYYCARYWSYPSWWPYRGMDYWGQGTLVTVSS VL: DIQMTQSPSSLSASVGDRVTITCRASQSVSSAVAWYQQKPGKAPKLLIYSASSLYSGVPSRFSGSRSGTDFTLTISSLQPEDFATYYCQQSSTDPITFGQGTKVEIKR | 2.91 nM
